“Also recorded” adds a separate entry of the source.
Key:
[1] = biological target: T1, P2Y1 receptor (Mus musculus, UniProt P49650); test: Forced swimming test (FST) in C57BL/6J mice; assay type: in vivo; conditions: for anti-depression like behavior (immobility time of swimming within the last 4 minutes): MRS2500 2.5 mg/kg intraperitoneally, FST 30 minutes later, 6 minutes; for immobility time of swimming: lateral ventricle administration, MRS2500 0.1 μM, MRS2179 0.2 μM, 1 μL, vs artificial cerebrospinal fluid control, FIG. 2; for immobility time during the forced swimming test: 0.5 μL shRNA adeno-associated virus at ventral tegmental area, 14 days after injection, vs control virus
T1 construct: from tissue; host or cells: living C57BL/6J mice; brain (lateral ventricle administration, ventral tegmental area) or systemic (intraperitoneal)
T1 sequence (P49650 whole entry): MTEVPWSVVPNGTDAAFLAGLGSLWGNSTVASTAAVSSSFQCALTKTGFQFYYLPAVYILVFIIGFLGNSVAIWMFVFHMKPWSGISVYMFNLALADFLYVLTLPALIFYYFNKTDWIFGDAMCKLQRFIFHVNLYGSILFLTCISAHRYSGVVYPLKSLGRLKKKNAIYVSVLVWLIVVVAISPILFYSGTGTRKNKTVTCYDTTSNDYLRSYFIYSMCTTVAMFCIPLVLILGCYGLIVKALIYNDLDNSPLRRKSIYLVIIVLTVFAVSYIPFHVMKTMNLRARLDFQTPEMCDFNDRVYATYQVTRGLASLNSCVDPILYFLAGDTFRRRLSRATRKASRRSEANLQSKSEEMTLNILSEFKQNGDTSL
Description: Forced swimming test which was proposed by Porsolt in 1977 was applied to the rats at the earliest, and subsequently extended to the mice. The forced swimming test is used to screening for antidepressants which are found to decrease immobility time of the forced swimming mice, and such model is one of the most common-used models for screening for antidepressants at present. The test steps are as follows: experimental mice adapted in an ethology laboratory for at least 60 minutes in advance, and the following test was carried out: an individual mouse was put in a cylinder glass jar (height: 45 cm; diameter: 19 cm) with a water depth of 23 cm at water temperature of 22° C.-25° C., and was subjected to the forced swimming for 6 minutes. Accumulative immobility time within the last 4 minutes was recorded (mainly behaves as stopping struggling, floating upright, or having only small limb movements to keep the head emerge from the water) as an index of tested depression-like behavior. Effect of the antidepressant can shorten the immobility time of the experimental mice.
Experimental animals: C57BL/6J mice, grade SPF, male, body weight of 20 to 24 g. The animals were provided by the Laboratory Animal Center of Southern Medical University (Guangzhou, China). The mice were put in the SPF grade animal feeding room for feeding in separate cages, with 3 to 4 mice in each cage. The plastic cage has a size of 300 mm×170 mm×120 mm. Room temperature: 24±1° C., light-dark cycle: 12 hours/12 hours, illumination time: 7:00 a.m. to 7:00 p.m., relative humidity: 70% to 85%. The indoor environment was kept quiet and the mice could eat and drink freely. The tests were carried out at 1:00 to 5:00 in the afternoon. Before the test, the mice entered the experimental environment in advance for adaptation and were touched by the experimental personnel for adaptation.
In the forced swimming test of the C57BL/6J mice, the animals were divided into 5 groups randomly with 10 mice in each group. The animals in each group were surgically implanted with a medical perfusion tube at the lateral ventricle and fed for seven days for recovery. Then, four groups of animals were subjected to the following treatment respectively: by using a microdose drug delivery system, administering the corresponding reagent: a control solution (artificial cerebrospinal fluid, 1 μL, 1 μL/min), MRS2500 (0.1 μM, 1 μL, 1 μL/min), MRS2179 (0.2 μM, 1 μL, 1 μL/min). After the injection for each group was completed, the forced swimming test was carried out 10 minutes later.
2.5 mg/kg MRS2500 was intraperitoneally administered to the mice, and 30 minutes later, the mice were subjected to the forced swimming test for 6 minutes. Immobility time of swimming within the last 4 minutes was determined to evaluate the effect of the antidepressant.
Test method: the animal in each group was micro-injected with 0.5 μL of interfering RNA adeno-associated virus (shRNA) at the ventral tegmental area (angle: 7°, AP: −3.2 mm, ML: 1.0 mm, DV: −4.6 mm) (0.1 μL/min, remaining the needle for 5 minutes after injection), fed for 14 days and subjected to a forced swimming test after the expression recovery of virus. Titer of the P2Y1 specific-interfering shRNA is 1×10^13 v.g/ml, 9.55E+08 copy/μL. Adeno-associated virus type 9 was used to package the virus, with the promoter being U6 and the serotype being AAV9 (packaged by Biowit Company, Shenzhen, China). Sequence information: the forward sequence is shown as SEQ ID NO:1; and the reverse sequence is shown as SEQ ID NO:2.

[2] = biological target: T1, P2Y1 receptor; test: Chronic social defeat stress model, social interaction test; assay type: in vivo, mice; conditions: for duration at the interaction area, social interaction test: chronic social defeat stress depressed mice, 14 days after injection of shRNA virus, FIG. 9
Description: The chronic social defeat stress model was carried out referring to the Golden method.
The C57BL/6J mice were randomly divided into a control group and a stress group. The C57BL/6J mouse in the stress group was daily put in a cage with a screened CD-1 mouse therein, for 10-minute body contact. As an invader, the C57BL/6J mouse behaved as escape, fear, obedience and the like after being attacked. After the contact, within the 24 hours after they were separated by a transparent and perforate partition, the C57BL/6J mouse could smell, see and hear the CD-1 mouse at the opposite side for mental stress. The C57BL/6J mice took turns daily to guarantee to be subjected to even stress. The test was continued for ten days. The CD-1 mouse in the control group was replaced by another C57BL/6J mouse, and took turns daily, but body contact was avoided. After modeling, the mice were fed in separate cages and were subjected to tube-implant surgery at the lateral ventricle. The control group and the test group were administered the corresponding reagent respectively: a control solution (artificial cerebrospinal fluid, 1 μL, 1 μL/min), MRS2500 (0.1 μM, 1 μL, 1 μL/min). After administration, depression level of the mice was tested by a social interaction test. The social interaction test was divided into two stages, 2.5 minutes for each stage. First stage (no target): the CD-1 mouse was not put in a transparent and perforate organic glass box; the C57BL/6J mice were put at the distal side, and dwell durations thereof at the interaction area and at the corner within 2.5 minutes were recorded. Second stage (target): the CD-1 mouse was put in the transparent and perforate organic glass box; the C57BL/6J mice were put at the distal side, and dwell durations thereof at the interaction area and at the corner within 2.5 minutes were recorded.
Experimental animals: C57BL/6J mice, grade SPF, male, body weight of 20 to 24 g. The animals were provided by the Laboratory Animal Center of Southern Medical University (Guangzhou, China). […]

[3] = biological target: T1, P2Y1 receptor; test: Sucrose preference test of mice modeled by chronic social defeat stress model; assay type: in vivo; conditions: chronic social defeat stress depressed mice; 14 days after injection of shRNA virus; FIG. 11
[4] = biological target: T1, P2Y1 receptor; test: Forced swimming test of mice modeled by chronic social defeat stress model; assay type: in vivo; conditions: chronic social defeat stress depressed mice, 14 days after injection of shRNA virus, FIG. 10
Description: Forced swimming test which was proposed by Porsolt in 1977 was applied to the rats at the earliest, and subsequently extended to the mice. The forced swimming test is used to screening for antidepressants which are found to decrease immobility time of the forced swimming mice, and such model is one of the most common-used models for screening for antidepressants at present. […] Accumulative immobility time within the last 4 minutes was recorded (mainly behaves as stopping struggling, floating upright, or having only small limb movements to keep the head emerge from the water) as an index of tested depression-like behavior. […]
The C57BL/6J mice were randomly divided into a control group and a stress group. […] First stage (no target): the CD-1 mouse was not put in a transparent and perforate organic glass box; the C57BL/6J mice were put at the distal side, and dwell durations thereof at the interaction area and at the corner within 2.5 minutes were recorded. Second stage (target): the CD-1 mouse was put in the transparent and perforate organic glass box; the C57BL/6J mice were put at the distal side, and dwell durations thereof at the interaction area and at the corner within 2.5 minutes were recorded. […]

[5] = system: P2Y1 receptor; test: Expression of P2Y1 receptor after intracerebral injection of interfering RNA adeno-associated virus; assay type: in vivo; conditions: mice injected at ventral tegmental area; vs control group mice
Description: In order to further verify whether the P2Y1 receptor can be used as a target of anti-depression and/or anti-anxiety, and to avoid the compensatory effect that may exist in the conventional knockout mice, P2Y1 receptor specifically-interfering adeno-associated virus was prepared in the present invention to be observed whether the virus affects the depression-like behavior. The mice were intracerebrally injected with a trace amount of the P2Y1 receptor-interfering RNA adeno-associated virus at the ventral tegmental area, and then a forced swimming test was carried out. […] The inventors further used a depression model, chronic social defeat stress model to verify the effect of the P2Y1 receptor specifically-interfering adeno-associated virus. After modeling of the depression model was completed, the mice took a day off, and then were administered the P2Y1 receptor specifically-interfering adeno-associated virus, and two weeks later the mice were subjected to a behavior test. […] In the sucrose preference test, a decreased sucrose preference of the social failure depressed mice was reversed (as shown in FIG. 11). […]

[6] = listed as P2Y1 receptor specifically-interfering adeno-associated virus

Molecule: CNCCC(Oc1ccc(C(F)(F)F)cc1)c1ccccc1 (stereo not shown) [Fluoxetine]
- anti-depression like behavior (immobility time of swimming within the last 4 minutes) ([1]; FIG. 1): anti-depression like behavior

Molecule: CNc1ncnc2c1ncn2[C@H]1C[C@H](OP(=O)(O)O)[C@@H](COP(=O)(O)O)O1 [MRS2179]
- immobility time of swimming [1]: significantly reduce the immobility time; also recorded: significantly shorten the immobility time of swimming

Molecule: CNc1nc(I)nc2c1ncn2[C@H]1C[C@H](OP(=O)(O)O)[C@]2(COP(=O)(O)O)C[C@H]12 [MRS2500]
- anti-depression like behavior (immobility time of swimming within the last 4 minutes) ([1]; FIG. 1, 2.5 mg/kg): shows the same anti-depression like behavior as administration of the conventional antidepressant Fluoxetine
- immobility time of swimming [1]: significantly reduce the immobility time; also recorded: significantly shorten the immobility time of swimming
- dwell duration at the interaction area (depressive situation) ([2]; chronic social defeat stress C57BL/6J mice, single dose MRS2500 0.1 μM, 1 μL, lateral ventricle, FIG. 3): significantly improved; also recorded: can improve the dwell duration at the interaction area

B1: P2Y1-shRNA: P2Y1 specific-interfering shRNA packaged in adeno-associated virus type 9, U6 promoter; sequences SEQ ID NO:1 and SEQ ID NO:2 (nucleic acid)
chain 1: GATCCCCAGCCCTCATCTTCTACTACTTCATTCAAGAGATGAAGTAGTAGAAGATGAGGGCTGGTTTTTTAGATCTA
chain 2: AGCTTAGATCTAAAAAACCAGCCCTCATCTTCTACTACTTCATCTCTTGAATGAAGTAGTAGAAGATGAGGGCTGGG
- immobility time during the forced swimming test ([1]; FIG. 8): significantly reduced immobility time
- immobility time during the forced swimming test ([1]; FIG. 8, listed as P2Y1 receptor-interfering RNA): obviously decreased immobility time
- sucrose preference [3]: enhance the decreased sucrose preference
- immobility time, forced swimming test [4]: reduce the increased immobility time
- immobility time, forced swimming test [4, 6]: returned to the level of the control group
- duration at the interaction area, social interaction test [2]: enhance the duration at the interaction area
- duration at the interaction area, social interaction test [2, 6]: situation of the social defeat depressed mice was reversed
- expression of P2Y1 receptor [5]: significantly decreased the expression of P2Y1 receptor
